Data published in doi:10.1101/2021.12.02.470928, “The PNUTS-PAD domain recruits MYC to the PNUTS:PP1 phosphatase complex via the oncogenic MYC-MB0 region” (bioRxiv, 2021).

Target: T1, PNUTS(1-148), PNUTS amino-terminal domain (PAD) (UniProt Q96QC0 1-148)
T1 construct: PNUTS (PP1 nuclear targeting subunit), residues 1-148, termed PAD; Vector pET28-MHL (RRID:Addgene_26096) with N-terminal His6 tag and TEV site; Used 13C,15N-labelled in some NMR experiments; also called apo PAD; source: E. coli BL21 (DE3), purified (Ni-NTA, gel filtration)
T1 sequence (looked up): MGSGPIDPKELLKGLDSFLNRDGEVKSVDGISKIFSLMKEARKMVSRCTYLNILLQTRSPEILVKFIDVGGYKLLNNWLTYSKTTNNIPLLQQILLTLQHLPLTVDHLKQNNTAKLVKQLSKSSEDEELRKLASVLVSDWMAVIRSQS
Experiment: BLI; C-terminally biotinylated MYC constructs or N-terminally biotinylated peptides on SA biosensors, dipped into serial dilutions of PAD (WT or mutant); Octet RED384; room temperature; HBS-EP (10 mM HEPES pH 7.4, 150 mM NaCl, 3 mM EDTA, 0.005% P20) with 0.002 mg/ml BSA; Kd from steady-state response curves; apparent
Conditions: both partners purified

B1: biotinylated MYC(1-88) with C-terminal AVI tag (domain or fragment, UniProt P01106-2 16-103, looked up)
chain: MPLNVSFTNRNYDLDYDSVQPYFYCDEEENFYQQQQQSELQPPAPSEDIWKKFELLPTPPLSPSRRSGLCSPSYVAVTPFSLRGDNDG
modifications: biotin on the C-terminal AVI tag
notes: MYC, residues 1-88 (contains MB0 and MBI); Purified 'as described above'; also called wild-type MYC(1-88); recombinant biotinylated MYC N-terminal protein; source: E. coli BL21 (DE3)-BirA, biotinylated by co-expressed BirA, purified; not shown: AVI tag, C-terminal, kept
Work on B1 yielded a Kd of 3.5 µM.
